# Target: HIV-1 BaL envelope (Env, gp120-gp41) on HIV-1 BaL pseudovirions (HIV-1 BaL, Env clone BaL.01) (UniProt Q2MKA9)
# Assay: two-color fluorescence correlation spectroscopy (FCS)
substance,measurement,value
"mAb b12 (IgG), Alexa 647-labelled (antibody)",percent of mAb virion-bound (slower diffusion coefficient),42%
